T1: LeishIF4E-1 (Leishmania cap-binding isoform 1) (Leishmania major, UniProt E9ADE1 1-214)
T1 sequence (looked up): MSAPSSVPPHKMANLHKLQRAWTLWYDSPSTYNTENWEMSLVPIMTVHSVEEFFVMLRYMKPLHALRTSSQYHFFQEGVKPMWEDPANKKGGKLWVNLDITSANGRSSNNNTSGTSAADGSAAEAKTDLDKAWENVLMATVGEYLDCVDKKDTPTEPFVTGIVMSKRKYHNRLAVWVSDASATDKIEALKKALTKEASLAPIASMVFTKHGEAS

B1: Leish4E-IP1 (construct not stated; data not shown) (domain or fragment, Leishmania major, UniProt E9AFM3 1-52, looked up)
chain: MPSVRTMYTREELLRIATLASAMDLGPEVLRKFDVIEVAEPVPTPKRRDAES
B2: Leish4E-IP1_(1–52) (domain or fragment, Leishmania major, UniProt E9AFM3 1-52, looked up)
chain: B1 chain
B3: Leish4E-IP1_(1–100) (domain or fragment, Leishmania major, UniProt E9AFM3 1-100, looked up)
chain: MPSVRTMYTREELLRIATLASAMDLGPEVLRKFDVIEVAEPVPTPKRRDAESNFKGSVFTDNFSTSTTITNLGPNGGGNSGGKGGHNSGMNGGGSSSNHP

Tests used:
human eIF4E = human eIF4E (human, UniProt P06730 1-217)
[1] = molecular target: T1, LeishIF4E-1 (Leishmania cap-binding …); test: ITC

Chain of human eIF4E (P06730 whole entry): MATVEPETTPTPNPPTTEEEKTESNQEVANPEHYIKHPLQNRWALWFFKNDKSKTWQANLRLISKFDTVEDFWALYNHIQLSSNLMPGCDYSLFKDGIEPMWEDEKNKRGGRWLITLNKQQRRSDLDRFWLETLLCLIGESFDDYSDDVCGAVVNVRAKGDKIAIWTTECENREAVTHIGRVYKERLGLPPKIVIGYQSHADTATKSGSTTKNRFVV

| Binder | fold lower binding affinity than for LeishIF4E-1 (human eIF4E) [fold] | Kd [1] [nM] | dH [1] [kcal/mol] |
| --- | --- | --- | --- |
| B1 | 10 | – | – |
| B2 | – | 9.7 | -15.5 ± 0.282 |
| B3 | – | 87 | -3.11 ± 0.0804 |

Reference: paper PMC5909430 (Nucleic Acids Research, 2018)
